Data on one molecule can be found in article PMC9079946, “Enzyme-free ultrasensitive fluorescence detection of epithelial cell adhesion molecules based on a toehold-aided DNA recycling amplification strategy†”.

In one data set the target is CD86 (UniProt P42081 24-247). Put plainly: strand a displacement with toehold-aided fluorescence amplification; 100 ng/mL CD86; slight fluorescence change only; 20 mM Tris-HCl, 100 mM NaCl, 10 mM KCl, 10 mM MgCl2, pH 7.5, 37 °C, 30 min. As to conditions: protein: commercial; partial duplex: 15 nt strand a hybridised to 48 nt aptamer; single-stranded 5' and 3' aptamer overhangs.
Sequence of CD86 (P42081 24-247): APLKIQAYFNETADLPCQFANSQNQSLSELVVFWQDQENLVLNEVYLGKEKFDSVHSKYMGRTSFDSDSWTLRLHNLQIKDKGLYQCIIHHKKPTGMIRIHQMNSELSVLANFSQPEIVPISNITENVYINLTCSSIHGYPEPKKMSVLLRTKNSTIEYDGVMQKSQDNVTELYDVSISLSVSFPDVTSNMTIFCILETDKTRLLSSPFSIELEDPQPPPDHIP

The target of the next data set is T1, EpCAM (UniProt P16422 24-265).
T1 sequence: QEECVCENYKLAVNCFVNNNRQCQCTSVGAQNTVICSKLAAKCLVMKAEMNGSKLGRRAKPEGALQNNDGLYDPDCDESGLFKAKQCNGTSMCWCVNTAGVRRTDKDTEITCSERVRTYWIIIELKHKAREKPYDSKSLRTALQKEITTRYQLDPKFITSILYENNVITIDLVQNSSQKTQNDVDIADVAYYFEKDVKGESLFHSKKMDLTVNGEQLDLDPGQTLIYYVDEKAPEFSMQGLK
Put plainly: strand a displacement with toehold-aided fluorescence amplification; 30 nM aptamer/strand a, 50 ng/mL EpCAM, 10 mM Mg2+; strands b, c, d, e 100 nM; 20 mM Tris-HCl, 100 mM NaCl, 10 mM KCl, 10 mM MgCl2, pH 7.5, 37 °C, 30 min. As to conditions: protein: commercial; partial duplex: 15 nt strand a hybridised to 48 nt aptamer; single-stranded 5' and 3' aptamer overhangs.

B1: EpCAM aptamer / strand a duplex (mixed)
DNA 1: CACTACAGAGGTTGCGTCTGTCCCACGTTGTCATGGGGGGTTGGCCTG
DNA 2: AGACGCAACCTCTGT
B1: the binding result with CD86 was “no binding”; in the data set with EpCAM, “binds”.
